Results from paper PMC11239505.

Biological target: Gαi (in HEK cells only expressing Gαs and Gαi, GloSensor assay)

parapinopsin from the Japanese lamprey Lethenteron camtschaticum (LcPPO) (receptor)
GloSensor assay: decrease of the forskolin-stimulated cAMP bioluminescence signal after a 2-s 365-nm light pulse, HEK cells only expressing Gαs and Gαi: 63%

trafficking-enhanced eOPN3 derived from Anopheles stephensi (AsOPN3) (receptor)
GloSensor assay: decrease of the forskolin-stimulated cAMP bioluminescence signal after a 2-s 365-nm light pulse, HEK cells only expressing Gαs and Gαi: 62%
